Numbering of substitutions follows the chain as printed. Each block holds one binder with its values, some of them ahead of it.
Key:
[1] = target: T1, cynomolgus monkey CD8A on primary cynomolgus monkey CD8+ T cells (cynomolgus monkey, UniProt P01732 23-235 (human entry)); assay: flow cytometry, cyno CD8+ T cells, 2 uM FN3
T1 construct: also called Cyno CD8alpha
Experimental: (§1) Binding of the 190 ELISA hits to human and cynomologous monkey primary CD8 T cells was assessed by flow cytometry. The FN3 domain molecules were diluted to 2 μM and 0.2 μM in PBS and incubated with human or cynomologous monkey CD8+ T cells in 96-well format. After 1 hour at 4 C, the cells were washed once with PBS and then resuspended with an anti-FN3 domain antibody (PAB25) solution. Following this incubation, the cells were washed twice with PBS and a PE conjugated secondary antibody and a viability dye were added. Finally, cells were washed and resuspended in PBS for flow cytometric analysis using a BD Canto Instrument. Cells were gating on live cells and median fluorescence intensity of the bound Centyrins (PE channel) was calculated using Cytobank software.

[2] = target: T2, human CD8 alpha (CD8A) on primary human CD8+ T cells (human, UniProt P01732 22-235); assay: flow cytometry, human CD8+ T cells, 0.2 uM FN3
T2 construct: whole, on cells; also called hCD8A
Experimental: as §1

[3] = target: T2, human CD8 alpha (CD8A) on primary human …; assay: flow cytometry, human CD8+ T cells, 2 uM FN3
Experimental: as §1

In house human CD8A-Fc = target: T3, In house human CD8A-Fc (human, UniProt P01732 22-182, limits assumed); assay: SPR (ProteOn), captured hCD8A-Fc
T3 construct: Captured on goat anti-human Fc on a ProteOn GLC chip; also called hCD8A-Fc; recombinant human CD8 alpha; not shown: linker with flag (and polyhistidine) tag and Fc of human IgG1
Experimental: Purified anti-CD8A FN3 domains were subjected to off-rate analysis using a Proteon surface plasmon resonance instrument in order to pick clones with the slowest off-rates for further characterization.
The immobilized GAH-Fc IgG densities averaged about 6000 Response Units (Ru) with less than 1% variation among different channels. In house human CD8A-Fc was captured in vertical orientation at 3 different ligand densities, 10, 5, 2.5 μg/ml for 5 minutes at 30 ul/minute flowrate. All FN3 domains were normalized to a 3 μM concentration, and tested for binding in horizontal orientation. All 6 analyte channels were used for FN3 domains to maximize the screening throughput. The dissociation phase was monitored for 15 minutes at a flow rate of 100 μl/min using PBST as running buffer. […] Data analyses were performed using Bio-Rad ProteOn Manager software (version 3.1.0.6). Raw data were double referenced by subtraction of the interspot (empty chip surface, no protein immobilized or captured) signals to correct the non-specific binding of the FN3 domain to the pre-coated GAH-Fc IgG surface, followed by a double correction using empty channel L6 where no hCD8A-Fc was captured. The processed binding data were locally fit to a 1:1 simple Langmuir binding model to extract the koff for each FN3 domain binding to captured hCD8A-Fc.

[4] = target: T1, cynomolgus monkey CD8A on primary …; assay: flow cytometry, cyno CD8+ T cells, 0.2 uM FN3
Experimental: as §1

T3 sequence (P01732 22-182 limits assumed): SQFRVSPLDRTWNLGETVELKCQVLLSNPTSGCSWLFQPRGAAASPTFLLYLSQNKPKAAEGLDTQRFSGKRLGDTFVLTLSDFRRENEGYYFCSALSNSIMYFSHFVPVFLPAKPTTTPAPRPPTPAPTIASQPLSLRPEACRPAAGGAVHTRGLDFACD
T2 sequence (P01732 22-235): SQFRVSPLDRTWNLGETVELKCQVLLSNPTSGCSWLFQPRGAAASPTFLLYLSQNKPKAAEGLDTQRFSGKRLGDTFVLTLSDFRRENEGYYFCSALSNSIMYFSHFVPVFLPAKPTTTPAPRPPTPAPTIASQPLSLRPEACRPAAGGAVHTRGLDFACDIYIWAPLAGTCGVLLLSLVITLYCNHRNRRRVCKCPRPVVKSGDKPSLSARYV
T1 sequence (P01732 other isoform, or with tags, fused parts or gaps limits assumed): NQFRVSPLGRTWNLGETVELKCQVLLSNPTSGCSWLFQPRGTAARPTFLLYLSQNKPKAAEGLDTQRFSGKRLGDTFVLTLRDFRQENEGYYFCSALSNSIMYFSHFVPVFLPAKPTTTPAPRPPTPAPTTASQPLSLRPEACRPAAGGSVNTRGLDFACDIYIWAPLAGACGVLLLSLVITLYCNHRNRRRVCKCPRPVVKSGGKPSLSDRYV

B1: P282BR9P1357_A9 (designed binder)
chain: LPAPKNLVVSRVTEDSARLSWKANRTTDLHFDSFLIQYQESEKVGEAIVLTVPGSERSYDLTGLKPGTEYTVSIYGVDVQYDGQQPLYSNPLSAIFTT
notes: FN3 domain
Cyno T-cell Binding 2 uM (MFI) [1]: 7280 MFI
Human T-cell Binding 0.2 uM (MFI) [2]: 1070 MFI
Human T-cell Binding 2 uM (MFI) [3]: 3120 MFI
koff (In house human CD8A-Fc): 0.00059 s⁻¹
Cyno T-cell Binding 0.2 uM (MFI) [4]: 1940 MFI

B2: P283AR9P1362_D7 (designed binder)
chain: LPAPKNLVVSRVTEDSARLSWVKRATSFDSFLIQYQESEKVGEAIVLTVPGSERSYDLTGLKPGTEYTVSIYGVDVKYDIDSRPISSNPLSAIFTT
notes: FN3 domain
Cyno T-cell Binding 2 uM (MFI) [1]: 27500 MFI
Human T-cell Binding 0.2 uM (MFI) [2]: 3350 MFI
Human T-cell Binding 2 uM (MFI) [3]: 17300 MFI
koff (In house human CD8A-Fc): 0.000118 s⁻¹
Cyno T-cell Binding 0.2 uM (MFI) [4]: 4850 MFI

B4: P283AR9P1362_C12 (designed binder)
chain: B2 chain with V22A, R24N, A25L, T26H
notes: FN3 domain
Cyno T-cell Binding 2 uM (MFI) [1]: 14800 MFI
Human T-cell Binding 0.2 uM (MFI) [2]: 2620 MFI
Human T-cell Binding 2 uM (MFI) [3]: 7060 MFI
koff (In house human CD8A-Fc): 9.94e-05 s⁻¹
Cyno T-cell Binding 0.2 uM (MFI) [4]: 3830 MFI

B6: P283AR9P1362_D3 (designed binder)
chain: LPAPKNLVVSRVTEDSARLSWPVESNAFDSFLIQYQESEKVGEAIVLTVPGSERSYDLTGLKPGTEYTVSIYGVDVEYDQHGRPRWSNPLSAIFTT
notes: FN3 domain
Cyno T-cell Binding 2 uM (MFI) [1]: 34600 MFI
Human T-cell Binding 0.2 uM (MFI) [2]: 3480 MFI
Human T-cell Binding 2 uM (MFI) [3]: 9500 MFI
koff (In house human CD8A-Fc): 0.000125 s⁻¹
Cyno T-cell Binding 0.2 uM (MFI) [4]: 6050 MFI

B8: P283AR9P1362_D4 (designed binder)
chain: B2 chain with K23R, R24E, A25H, T26D
notes: FN3 domain
Cyno T-cell Binding 2 uM (MFI) [1]: 25700 MFI
Human T-cell Binding 0.2 uM (MFI) [2]: 2980 MFI
Human T-cell Binding 2 uM (MFI) [3]: 9830 MFI
koff (In house human CD8A-Fc): 9.72e-05 s⁻¹
Cyno T-cell Binding 0.2 uM (MFI) [4]: 4100 MFI

B10: P282AR9P1356_H6 (designed binder)
chain: B6 chain with P22R, V23K, E24R, S25A, A27S, D75H
notes: FN3 domain
Cyno T-cell Binding 2 uM (MFI) [1]: 14400 MFI
Human T-cell Binding 0.2 uM (MFI) [2]: 2640 MFI
Human T-cell Binding 2 uM (MFI) [3]: 6650 MFI
koff (In house human CD8A-Fc): 8.08e-05 s⁻¹
Cyno T-cell Binding 0.2 uM (MFI) [4]: 3200 MFI

Second part, the binder after the results:

Cyno T-cell Binding 2 uM (MFI) [1]: 32500 MFI
Human T-cell Binding 0.2 uM (MFI) [2]: 3530 MFI
Human T-cell Binding 2 uM (MFI) [3]: 12700 MFI
koff (In house human CD8A-Fc): 0.000102 s⁻¹
Cyno T-cell Binding 0.2 uM (MFI) [4]: 6830 MFI
B3: P283AR9P1362_G11 (designed binder)
chain: B2 chain with V22R, R24E
notes: FN3 domain

Cyno T-cell Binding 2 uM (MFI) [1]: 26300 MFI
Human T-cell Binding 0.2 uM (MFI) [2]: 2620 MFI
Human T-cell Binding 2 uM (MFI) [3]: 8970 MFI
koff (In house human CD8A-Fc): 7.28e-05 s⁻¹
Cyno T-cell Binding 0.2 uM (MFI) [4]: 3790 MFI
B5: P283AR9P1362_F12 (designed binder)
chain: B2 chain with V22A, K23R, R24N, A25I
notes: FN3 domain

Cyno T-cell Binding 2 uM (MFI) [1]: 15900 MFI
Human T-cell Binding 0.2 uM (MFI) [2]: 2010 MFI
Human T-cell Binding 2 uM (MFI) [3]: 6180 MFI
koff (In house human CD8A-Fc): 0.000327 s⁻¹
Cyno T-cell Binding 0.2 uM (MFI) [4]: 2840 MFI
B7: P283AR9P1362_E9 (designed binder)
chain: B2 chain with K23P, R24S, A25P, T26W, S27G
notes: FN3 domain

Cyno T-cell Binding 2 uM (MFI) [1]: 26400 MFI
Human T-cell Binding 0.2 uM (MFI) [2]: 1370 MFI
Human T-cell Binding 2 uM (MFI) [3]: 9620 MFI
koff (In house human CD8A-Fc): 0.00211 s⁻¹
Cyno T-cell Binding 0.2 uM (MFI) [4]: 5520 MFI
B9: P283AR9P1362_F2 (designed binder)
chain: B2 chain with V22R, R24K, A25D, T26H, S27P
notes: FN3 domain

Cyno T-cell Binding 2 uM (MFI) [1]: 33500 MFI
Human T-cell Binding 0.2 uM (MFI) [2]: 3660 MFI
Human T-cell Binding 2 uM (MFI) [3]: 13700 MFI
koff (In house human CD8A-Fc): 2.64e-05 s⁻¹
Cyno T-cell Binding 0.2 uM (MFI) [4]: 7720 MFI
B11: P283AR9P1362_D6 (designed binder)
chain: B2 chain with V22A, A25P, T26G, S27A
notes: FN3 domain

From patent US20210032312A1 (Janssen / Centocor, published 2021)
